Some results are limits rather than exact numbers.

For this assay, the target named is IL-6 (UniProt P05231 30-212, limits assumed). Nature of the assay: cell-based or functional assay.
IL-6, sequence (P05231 30-212 limits assumed): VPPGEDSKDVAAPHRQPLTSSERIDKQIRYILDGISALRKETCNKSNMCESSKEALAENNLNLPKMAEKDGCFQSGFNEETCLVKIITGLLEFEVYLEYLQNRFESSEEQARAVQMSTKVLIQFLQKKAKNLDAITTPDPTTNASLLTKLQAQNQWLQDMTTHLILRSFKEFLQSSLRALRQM

B1: RDB1542 (Fc fusion)
chain: QNQWLQDMTTHLILRSFKEFLQSSLRALRQMSGGSGGGSSERIDKQIRYILDGISALRKETCNKSNMCESSKEALAENNLNLPKMAEKDGCFQSGFNEETCLVKIITGLLEFEVYLEYLQNRFESSEEQARAVQMSTKVLIQFLQKKAKNLDAITTPDPTTNASLLTKLQASELLDPCGYISPESPVVQLHSNFTAVCVLKEKCMDYFHVNANYIVWKTNHFTIPKEQYTIINRTASSVTFTDIASLNIQLTCNILTFGQLEQNVYGITIISGGSERKCCVECPPCPAPPVAGPSVFLFPPKPKDTLMISRTPEVTCVVVDVSHEDPEVQFNWYVDGVEVHNAKTKPREEQFNSTFRVVSVLTVVHQDWLNGKEYKCKVSNKGLPAPIEKTISKTKGQPREPQVYTLPPSREEMTKNQVSLTCLVKGFYPSDISVEWESNGQPENNYKTTPPMLDSDGSFFLYSKLTVDKSRWQQGNVFSCSVMHEALHNHYTQKSLSLSPGK
Turning to B1, the “IC50, inhibition of IL-6-dependent differentiation of M1 cells (percent CD32 positive cells)” value was greater than 1000 µM.

B2: RDB1562 (Fc fusion)
chain: QNQWLQDMTTHLILRSFKEFLQSSLRALRQMSGGSGGGSSERIDKQIRYILDGISALRKETCNKSNMCESSKEALAENNLNLPKMAEKDGCFQSGFNEETCLVKIITGLLEFEVYLEYLQNRFESSEEQARAVQMSTKVLIQFLQKKAKNLDAITTPDPTTNASLLTKLQASELLDPCGYISPESPVVQLHSNFTAVCVLKEKCMDYFHVNANYIVWKTNHFTIPKEQYTIINRTASSVTFTDIASLNIQLTCNILTFGQLEQNVYGITIISGGGGGSASSESSASSDGPHPVITESRASSESSASSDGPHPVITESRSERKCCVECPPCPAPPVAGPSVFLFPPKPKDTLMISRTPEVTCVVVDVSHEDPEVQFNWYVDGVEVHNAKTKPREEQFNSTFRVVSVLTVVHQDWLNGKEYKCKVSNKGLPAPIEKTISKTKGQPREPQVYTLPPSREEMTKNQVSLTCLVKGFYPSDISVEWESNGQPENNYKTTPPMLDSDGSFFLYSKLTVDKSRWQQGNVFSCSVMHEALHNHYTQKSLSLSPGK
B2: the “IC50, inhibition of IL-6-dependent differentiation of M1 cells (percent CD32 positive cells)” value stood at 0.0026 µM and the “fold potency against RDB1542, inhibition of IL-6-dependent differentiation of M1 cells” value was greater than 400 fold.

(Values after patent US20160237132A1 (ALKERMES, published 2016).)
